4 molecules from patent US7358040B2, “MRE 11: modulation of cellular proliferation” (Rigel Pharmaceuticals, Incorporated, priority 2001, dated 2008) can be followed below.

What all share (format): cell-based
The subject of assay [1] is HeLa cells. The assay can be described thus: overexpression / GFP positivity proliferation assay in HeLa cells. An excerpt: (§1) As described below, the present inventors identified MRE11 in a yeast two hybrid assay, using PCNA as bait. Another molecule, NBS1, was identified in the two-hybrid assay as a PCNA-binding protein, as NBS1 binds the mammalian homolog of yeast RAD50, which also binds to MRE11 (see, e.g., Petrini, Am. J Hum. Genet. 64:1264-1269 (1999); Kim et al., J. Biol. Chem. 271:29255-29264 (1996); see also GenBank Accession number XP—034864 for a protein sequence of human RAD50 and Accession number XM—034864 for a nucleic acid sequence of human RAD50; see also Example 1)). NBS1 therefore bound to the RAD50/MRE11 complex, as well as to PCNA. As shown in FIGS. 8-15, inhibition of MRE11 or overexpression of an MRE11 mutant is antiproliferative in tumor cells and HeLa cells but not in normal cells (using, e.g., GFP positivity assays, cell tracker assays, and antisense assays).
(§2) In another embodiment, MRE11 protein is expressed in a cell, and functional, e.g., physical and chemical or phenotypic, changes are assayed to identify MRE11 and modulators of cellular proliferation, e.g., tumor cell proliferation. Cells expressing MRE11 proteins can also be used in binding assays and enzymatic assays. Any suitable functional effect can be measured, as described herein. […]

Assay [2] relates to A549 tumor cells. The assay can be described thus: cell tracker assay in A549 tumor cells.
Text: as §1, §2

For assay [3], the system named is A549 tumor cells. Put plainly: overexpression / GFP positivity proliferation assay in A549 tumor cells.
Text: as §1, §2

The subject of a further assay is normal HMEC cells. The assay can be described thus: bleomycin chemosensitization study in normal HMEC cells.
Text: as §1

For assay [4], the system named is A549 tumor cells. The assay can be described thus: bleomycin chemosensitization study in A549 tumor cells.
Text: as §1

Assay [5] relates to HeLa cells. The assay can be described thus: bleomycin chemosensitization study in HeLa cells.
Text: as §1

The subject of assay [6] is normal cells. Put plainly: cell tracker assay in normal cells.
Text: as §1, §2

The test system of assay [7] is normal cells. Put plainly: overexpression proliferation assay in normal cells.
Text: as §1, §2

B1: GFP-fused MRE11 H129N mutant: GFP-fused dominant negative H129N mutant of MRE11 nuclease, overexpressed in cells for target validation (protein, UniProt P49959 2-708, looked up, variant H129N)
Double-strand break repair …: STADALDDENTFKILVATDIHLGFMEKDAVRGNDTFVTLDEILRLAQENEVDFILLGGDLFHENKPSRKTLHTCLELLRKYCMGDRPVQFEILSDQSVNFGFSKFPWVNYQDGNLNISIPVFSIHGNNDDPTGADALCALDILSCAGFVNHFGRSMSVEKIDISPVLLQKGSTKIALYGLGSIPDERLYRMFVNKKVTMLRPKEDENSWFNLFVIHQNRSKHGSTNFIPEQFLDDFIDLVIWGHEHECKIAPTKNEQQLFYISQPGSSVVTSLSPGEAVKKHVGLLRIKGRKMNMHKIPLHTVRQFFMEDIVLANHPDIFNPDNPKVTQAIQSFCLEKIEEMLENAERERLGNSHQPEKPLVRLRVDYSGGFEPFSVLRFSQKFVDRVANPKDIIHFFRHREQKEKTGEEINFGKLITKPSEGTTLRVEDLVKQYFQTAEKNVQLSLLTERGMGEAVQEFVDKEEKDAIEELVKYQLEKTQRFLKERHIDALEDKIDEEVRRFRETRQKNTNEEDDEVREAMTRARALRSQSEESASAFSADDLMSIDLAEQMANDSDDSISAATNKGRGRGRGRRGGRGQNSASRGGSQRGRADTGLETSTRSRNSKTAVSASRNMSIIDAFKSTRQQPSRNVTTKNYSEVIEVDESDVEEDIFPTTSKTDQRWSSTSSSKIMSQSQVSKGVDFESSEDDDDDPFMNTSSLRRNRR
modifications: GFP fusion
notes: GFP-fused dominant negative H129N mutant of MRE11 nuclease, overexpressed in cells for target validation
Turning to B1, the “antiproliferative activity on overexpression” value in the assay on HeLa cells [1] and in the assay on A549 tumor cells [3] was “antiproliferative” each time. Further, in the assay with A549 tumor cells [2], the “antiproliferative activity, cell tracker assay” value is recorded as “antiproliferative”.

B2: GFP-MRE11 H217Y mutant: GFP-fused MRE11 H217Y mutant overexpressed in cells (protein, UniProt P49959 2-708, looked up, variant H217Y)
Double-strand break repair …: STADALDDENTFKILVATDIHLGFMEKDAVRGNDTFVTLDEILRLAQENEVDFILLGGDLFHENKPSRKTLHTCLELLRKYCMGDRPVQFEILSDQSVNFGFSKFPWVNYQDGNLNISIPVFSIHGNHDDPTGADALCALDILSCAGFVNHFGRSMSVEKIDISPVLLQKGSTKIALYGLGSIPDERLYRMFVNKKVTMLRPKEDENSWFNLFVIYQNRSKHGSTNFIPEQFLDDFIDLVIWGHEHECKIAPTKNEQQLFYISQPGSSVVTSLSPGEAVKKHVGLLRIKGRKMNMHKIPLHTVRQFFMEDIVLANHPDIFNPDNPKVTQAIQSFCLEKIEEMLENAERERLGNSHQPEKPLVRLRVDYSGGFEPFSVLRFSQKFVDRVANPKDIIHFFRHREQKEKTGEEINFGKLITKPSEGTTLRVEDLVKQYFQTAEKNVQLSLLTERGMGEAVQEFVDKEEKDAIEELVKYQLEKTQRFLKERHIDALEDKIDEEVRRFRETRQKNTNEEDDEVREAMTRARALRSQSEESASAFSADDLMSIDLAEQMANDSDDSISAATNKGRGRGRGRRGGRGQNSASRGGSQRGRADTGLETSTRSRNSKTAVSASRNMSIIDAFKSTRQQPSRNVTTKNYSEVIEVDESDVEEDIFPTTSKTDQRWSSTSSSKIMSQSQVSKGVDFESSEDDDDDPFMNTSSLRRNRR
modifications: GFP fusion
notes: GFP-fused MRE11 H217Y mutant overexpressed in cells
B2: the “sensitivity to bleomycin treatment on overexpression” value with normal HMEC cells is reported as “does not enhance sensitivity”; with A549 tumor cells [4] (A549 tumor cells), “enhances sensitivity”; in the assay with HeLa cells [5], “enhances sensitivity”.

B3: MRE11 H129N mutant: MRE11 H129N mutant expressed using IRES GFP (not fused) (protein, UniProt P49959 2-708, looked up, variant H129N)
Double-strand break repair …: STADALDDENTFKILVATDIHLGFMEKDAVRGNDTFVTLDEILRLAQENEVDFILLGGDLFHENKPSRKTLHTCLELLRKYCMGDRPVQFEILSDQSVNFGFSKFPWVNYQDGNLNISIPVFSIHGNNDDPTGADALCALDILSCAGFVNHFGRSMSVEKIDISPVLLQKGSTKIALYGLGSIPDERLYRMFVNKKVTMLRPKEDENSWFNLFVIHQNRSKHGSTNFIPEQFLDDFIDLVIWGHEHECKIAPTKNEQQLFYISQPGSSVVTSLSPGEAVKKHVGLLRIKGRKMNMHKIPLHTVRQFFMEDIVLANHPDIFNPDNPKVTQAIQSFCLEKIEEMLENAERERLGNSHQPEKPLVRLRVDYSGGFEPFSVLRFSQKFVDRVANPKDIIHFFRHREQKEKTGEEINFGKLITKPSEGTTLRVEDLVKQYFQTAEKNVQLSLLTERGMGEAVQEFVDKEEKDAIEELVKYQLEKTQRFLKERHIDALEDKIDEEVRRFRETRQKNTNEEDDEVREAMTRARALRSQSEESASAFSADDLMSIDLAEQMANDSDDSISAATNKGRGRGRGRRGGRGQNSASRGGSQRGRADTGLETSTRSRNSKTAVSASRNMSIIDAFKSTRQQPSRNVTTKNYSEVIEVDESDVEEDIFPTTSKTDQRWSSTSSSKIMSQSQVSKGVDFESSEDDDDDPFMNTSSLRRNRR
As to B3, in the assay on A549 tumor cells [2], the “antiproliferative activity, cell tracker assay” value is listed as “antiproliferative”.

B4: MRE11 wild type: wild-type human MRE11 protein (SEQ ID NO:2) overexpressed in cells (protein, listed as Homo sapiens)
chain: MSTADALDDENTFKILVATDIHLGFMEKDAVRGNDTFVTLDEILRLAQENEVDFILLGGDLFHENKPSRKTLHTCLELLRKYCMGDRPVQFEILSDQSVNFGFSKFPWVNYQDGNLNISIPVFSIHGNHDDPTGADALCALDILSCAGFVNHFGRSMSVEKIDISPVLLQKGSTKIALYGLGSIPDERLYRMFVNKKVTMLRPKEDENSWFNLFVIHQNRSKHGSTNFIPEQFLDDFIDLVIWGHEHECKIAPTKNEQQLFYISQPGSSVVTSLSPGEAVKKHVGLLRIKGRKMNMHKIPLHTVRQFFMEDIVLANHPDIFNPDNPKVTQAIQSFCLEKIEEMLENAERERLGNSHQPEKPLVRLRVDYSGGFEPFSVLRFSQKFVDRVANPKDIIHFFRHREQKEKTGEEINFGKLITKPSEGTTLRVEDLVKQYFQTAEKNVQLSLLTERGMGEAVQEFVDKEEKDAIEELVKYQLEKTQRFLKERHIDALEDKIDEEVRRFRETRQKNTNEEDDEVREAMTRARALRSQSEESASAFSADDLMSIDLAEQMANDSDDSISAATNKGRGRGRGRRGGRGQNSASRGGSQRGRADTGLETSTRSRNSKTAVSASRNMSIIDAFKSTRQQPSRNVTTKNYSEVIEVDESDVEEDIFPTTSKTDQRWSSTSSSKIMSQSQVSKGVDFESSEDDDDDPFMNTSSLRRNRR
modifications: human MRE11 meiotic recombination 11 homolog A
On to B4, for which, in the assay on A549 tumor cells [4] (tumor cells expressing the protein, 48 hours after bleomycin treatment), the “selective sensitization after bleomycin treatment” value was “no selective sensitization”. In addition, in the assay with normal cells [6], the “antiproliferative activity, cell tracker assay” value is listed as “no antiproliferative activity”. The “antiproliferative activity on overexpression” value with normal cells [7] is “not antiproliferative”.
